Assay results: the supplement of paper PMC10567573

B1: RTP4 (parent)
chain: AFGWFRCSSCQRSWASAQVQILCH

Variants of: B1
Assay: protein stability index of a GFP-peptide fusion (GPS, HEK-293T) (PSI 1-6); higher = more stable
Conditions: c terminus: a fixed tail appended
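Also: lentivirally expressed fusions sorted by FACS into six bins by GFP to DsRed ratio, PSI derived from sequencing read proportions per bin multiplied by bin number.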

| Variant | protein stability index |
| --- | --- |
| AFGWFRCSSCQRYWASAQVQILCH | 3.16 |
| AFGWFRCSSCQRDWASAQVQILCH | 2.27 |
| AFGWFRCSSCQRVWASAQVQILCH | 3.12 |
| AFGWFRCSSCQRMWASAQVQILCH | 2.09 |
| AFGWFRCSSCQRLWASAQVQILCH | 1.69 |
| AFGWFRCSSCQRNWASAQVQILCH | 3.74 |
| AFGWFRCSSCQRRWASAQVQILCH | 2.27 |
| AFGWFRCSSCQRIWASAQVQILCH | 1.36 |
| AFGWFRCSSCQRFWASAQVQILCH | 1.54 |
| AFGWFRCSSCQRPWASAQVQILCH | 2.41 |
| AFGWFRCSSCQRQWASAQVQILCH | 2.43 |
| AFGWFRCSSCQRHWASAQVQILCH | 2.36 |
| AFGWFRCSSCQRWWASAQVQILCH | 3.02 |
| AFGWFRCSSRQRSWASAQVQILCH | 2.77 |
| AFGWFRCSSLQRSWASAQVQILCH | 2.7 |
| AFGWFRCSSNQRSWASAQVQILCH | 3.16 |
| AFGWFRCSSGQRSWASAQVQILCH | 3.33 |
| AFGWFRCSSFQRSWASAQVQILCH | 3.06 |
| AFGWFRCSSCQRSRASAQVQILCH | 1.48 |
| AFGWFRCSSCQRSNASAQVQILCH | 2.96 |
| AFGWFRCSSCQRSCASAQVQILCH | 3.08 |
| AFGWFRCSSCQRSMASAQVQILCH | 1.1 |
| AFGWFRCSSCQRSIASAQVQILCH | 2.21 |
| AFGWFRCSSCQRSYASAQVQILCH | 2.11 |

| Variant | protein stability index |
| --- | --- |
| AFGWFRCSSCQRSAASAQVQILCH | 1.8 |
| AFGWFRCSSCQRSFASAQVQILCH | 3.1 |
| AFGWFRCSSCQRSVASAQVQILCH | 1.36 |
| AFGWFRCSSCQRSLASAQVQILCH | 1.57 |
| AFGWFRCSSCQRSSASAQVQILCH | 2.45 |
| AFGWFRCSSCQRSTASAQVQILCH | 3.22 |
| AFGWFRCSSCQRSKASAQVQILCH | 2.54 |
| AFGWFRCSSCQRSPASAQVQILCH | 3.31 |
| AFGWFRCSSCQRSHASAQVQILCH | 1.95 |
| AFGWFICSSCQRSWASAQVQILCH | 3.19 |
| AFGWFYCSSCQRSWASAQVQILCH | 2.65 |
| AFGWFQCSSCQRSWASAQVQILCH | 2.12 |
| AFGWFHCSSCQRSWASAQVQILCH | 2.77 |
| AFGWFLCSSCQRSWASAQVQILCH | 3.45 |
| AFGWFNCSSCQRSWASAQVQILCH | 1.77 |
| AFGWFACSSCQRSWASAQVQILCH | 2.65 |
| AFGWFCCSSCQRSWASAQVQILCH | 2.07 |
| AFGWFFCSSCQRSWASAQVQILCH | 1.93 |
| AFGWFRCSSCQRSWNSAQVQILCH | 4.46 |
| AFGWFRCSSCQRSWISAQVQILCH | 1.53 |
| AFGWFRCSSCQRSWKSAQVQILCH | 2.12 |
| AFGWFRCSSCQRSWFSAQVQILCH | 2 |
| AFGWFRCSSCQRSWVSAQVQILCH | 1.07 |
| AFGWFRCSSCQRSWDSAQVQILCH | 1.24 |

| Variant | protein stability index |
| --- | --- |
| AFGWFRCSSCQRSWYSAQVQILCH | 2.87 |
| AFGWFRCSSCQRSWESAQVQILCH | 1.6 |
| AFGWFRCSSCQRSWSSAQVQILCH | 2.04 |
| AFGWFRCSSCQRSWWSAQVQILCH | 2.79 |
| AFGWFRCSSCQRSWHSAQVQILCH | 1.83 |
| AFGWFRCSSCQRSWCSAQVQILCH | 2.98 |
| AFGWFRCSICQRSWASAQVQILCH | 2.15 |
| AFGWFRCSNCQRSWASAQVQILCH | 2.39 |
| AFGWFRCSHCQRSWASAQVQILCH | 3.52 |
| AFGWFRCSMCQRSWASAQVQILCH | 3.56 |
| AFGWFRCSTCQRSWASAQVQILCH | 4.83 |
| AFGWFRCSYCQRSWASAQVQILCH | 3.01 |
| AFGWFRCSVCQRSWASAQVQILCH | 1.64 |
| AFGWFRCSLCQRSWASAQVQILCH | 2.59 |
| AFGWFRCSPCQRSWASAQVQILCH | 2.5 |
| AFGWFRCSFCQRSWASAQVQILCH | 2.75 |
| AFGWFRCSCCQRSWASAQVQILCH | 2.09 |
| AFGWFRCSGCQRSWASAQVQILCH | 1.9 |
| AFGWFRCSQCQRSWASAQVQILCH | 2.35 |
| AFGWFRCSKCQRSWASAQVQILCH | 1.72 |
| AFGWFRCSSCQRSWASAQCQILCH | 1.56 |
| AFGWFRCSSCQRSWASAQTQILCH | 2.79 |
| AFGWFRCSSCQRSWASAQRQILCH | 2.36 |
| AFGWFRCSSCQRSWASAQAQILCH | 1.57 |

| Variant | protein stability index |
| --- | --- |
| AFGWFRCSSCQRSWASAQQQILCH | 1.91 |
| AFGWFRCSSCQRSWASAQSQILCH | 2.36 |
| AFGWFRCSSCQRSWASAQNQILCH | 3 |
| AFGWFRCSSCQRSWASAQHQILCH | 1.59 |
| AFGWFRCSSCQRSWASAQEQILCH | 2.23 |
| AFGWFRCSSCQRSWASAQPQILCH | 1.35 |
| AFGWFRCSSCQRSWASAQKQILCH | 1.67 |
| AFGWFRCSSCQRSWASAQGQILCH | 2.58 |
| AFGWFRCSSCQRSWASAQFQILCH | 3.22 |
| AFGWFRCSSCQRSWASAQIQILCH | 3.39 |
| AFGWFRCSSCQRSWASAQMQILCH | 3.54 |
| AFGWFRCSSCQRSWASAQYQILCH | 3.2 |
| AFGWFRCSSCQRSWASAQDQILCH | 1.52 |
| AFGWFRKSSCQRSWASAQVQILCH | 3.9 |
| AFGWFRSSSCQRSWASAQVQILCH | 3.67 |
| AFGWFRYSSCQRSWASAQVQILCH | 2.67 |
| AFGWFRESSCQRSWASAQVQILCH | 2.89 |
| AFGWFRISSCQRSWASAQVQILCH | 2.4 |
| AFGWFRDSSCQRSWASAQVQILCH | 3.61 |
| AFGWFRHSSCQRSWASAQVQILCH | 2.97 |
| AFGWFRVSSCQRSWASAQVQILCH | 3.3 |
| AFGWFRLSSCQRSWASAQVQILCH | 4.23 |
| AFGWFRCSSCQRSWASAQVTILCH | 1.24 |
| AFGWFRCSSCQRSWASAQVWILCH | 1.69 |

| Variant | protein stability index |
| --- | --- |
| AFGWFRCSSCQRSWASAQVKILCH | 2.83 |
| AFGWFRCSSCQRSWASAQVYILCH | 3.08 |
| AFGWFRCSSCQRSWASAQVSILCH | 2.84 |
| AFGWFRCSSCQRSWASAQVIILCH | 2.42 |
| AFGWFRCSSCQRSWASAQVPILCH | 3.22 |
| AFGWFRCSSCQRSWASAQVHILCH | 2.97 |
| AFGWFRCSSCQRSWASAQVDILCH | 1.66 |
| AFGWFRCSSCQRSWASAQVNILCH | 2.4 |
| AFGWFRCSSCQRSWASAQVCILCH | 2.17 |
| AFGWFRCSSCQRSWASAQVLILCH | 4.4 |
| AFGWFRCSSCQRSWASAQVVILCH | 2.08 |
| AFGWFRCSSCQRSWASAQVAILCH | 1.57 |
| AFGWFRCSSCQRSWASCQVQILCH | 2.38 |
| AFGWFRCSSCQRSWASEQVQILCH | 2.93 |
| AFGWFRCSSCQRSWASHQVQILCH | 2.31 |
| AFGWFRCSSCQRSWASDQVQILCH | 3.07 |
| AFGWFRCSSCQRSWASIQVQILCH | 3.06 |
| AFGWFRCSSCQRSWASWQVQILCH | 2.94 |
| AFGWFRCSSCQRSWASYQVQILCH | 2.43 |
| AFGWFRCSSCQRSWASKQVQILCH | 3.13 |
| AFGWFRCSSCQRSWASVQVQILCH | 2.19 |
| AFGWFRCSSCQRSWASMQVQILCH | 1.86 |
| AFGWFRCSSCQRSWASNQVQILCH | 1.65 |
| AFGWFRCSSCQRSWASPQVQILCH | 2.21 |

| Variant | protein stability index |
| --- | --- |
| AFGWKRCSSCQRSWASAQVQILCH | 3.49 |
| AFGWGRCSSCQRSWASAQVQILCH | 2.57 |
| AFGWIRCSSCQRSWASAQVQILCH | 2.35 |
| AFGWQRCSSCQRSWASAQVQILCH | 2.99 |
| AFGWYRCSSCQRSWASAQVQILCH | 4 |
| AFGWFRCSSCQRSWASAPVQILCH | 2.52 |
| AFGWFRCSSCQRSWASAKVQILCH | 1.42 |
| AFGWFRCSSCQRSWASADVQILCH | 2.22 |
| AFGWFRCSSCQRSWASAIVQILCH | 2.59 |
| AFGWFRCSSCQRSWASANVQILCH | 1.71 |
| AFGWFRCSSCQRSWASAHVQILCH | 2.68 |
| AFGWFRCSSCQRSWASAVVQILCH | 4.68 |
| AFGWFRCSSCQRSWASAWVQILCH | 2.88 |
| AFGWFRCSSCQRSWASASVQILCH | 2.14 |
| AFGWFRCSSCQRSWASATVQILCH | 1.57 |
| AFGWFRCSSCQRSWASAAVQILCH | 2.37 |
| AFGWFRCSSCQRSWASACVQILCH | 3.51 |
| AFGWFRCSSCQRSWASAMVQILCH | 3.17 |
| AFGWFRCSSCQRSWASAQVQFLCH | 2.39 |
| AFGWFRCSSCQRSWASAQVQGLCH | 1.49 |
| AFGWFRCSSCQRSWASAQVQCLCH | 3.07 |
| AFGWFRCSSCQRSWASAQVQKLCH | 1.03 |
| AFGWFRCSSCQRSWASAQVQALCH | 1.68 |
| AFGWFRCSSCQRSWASAQVQHLCH | 2.27 |

| Variant | protein stability index |
| --- | --- |
| AFGWFRCSSCERSWASAQVQILCH | 1.88 |
| AFGWFRCSSCVRSWASAQVQILCH | 4.38 |
| AFGWFRCSSCNRSWASAQVQILCH | 2.49 |
| AFGWFRCSSCPRSWASAQVQILCH | 2.27 |
| AFGWFRCSSCGRSWASAQVQILCH | 2.23 |
| AFGWFRCSSCHRSWASAQVQILCH | 2.43 |
| AFGWFRCSSCKRSWASAQVQILCH | 3.01 |
| AFGWFRCSSCRRSWASAQVQILCH | 2.89 |
| AFGWFRCSSCTRSWASAQVQILCH | 3.55 |
| AFGWFRCSSCWRSWASAQVQILCH | 1.81 |
| AFGWFRCSSCDRSWASAQVQILCH | 2.83 |
| AFGWFRCSSCIRSWASAQVQILCH | 3.81 |
| AFGWFRCSSCYRSWASAQVQILCH | 4.15 |
| AFGWFRCPSCQRSWASAQVQILCH | 2.27 |
| AFGWFRCDSCQRSWASAQVQILCH | 3.96 |
| AFGWFRCHSCQRSWASAQVQILCH | 2.39 |
| AFGWFRCVSCQRSWASAQVQILCH | 3.2 |
| AFGWFRCESCQRSWASAQVQILCH | 1.83 |
| AFGWFRCSSCQNSWASAQVQILCH | 1.91 |
| AFGWFRCSSCQQSWASAQVQILCH | 3.2 |
| AFGWFRCSSCQDSWASAQVQILCH | 2.1 |
| AFGWFRCSSCQKSWASAQVQILCH | 1.9 |
| AFGWFRCSSCQWSWASAQVQILCH | 2.71 |
| AFGWFRCSSCQISWASAQVQILCH | 2.33 |

| Variant | protein stability index |
| --- | --- |
| AFGWFRCSSCQLSWASAQVQILCH | 1.65 |
| AFGWFRCSSCQTSWASAQVQILCH | 3.84 |
| AFGWFRCSSCQSSWASAQVQILCH | 2 |
| AFGWFRCSSCQCSWASAQVQILCH | 3.76 |
| AFGWFRCSSCQYSWASAQVQILCH | 2.83 |
| AFGWFRCSSCQMSWASAQVQILCH | 2.86 |
| AFGWFRCSSCQPSWASAQVQILCH | 3.2 |
| AFGWFRCSSCQRSWANAQVQILCH | 2.77 |
| AFGWFRCSSCQRSWAWAQVQILCH | 1.86 |
| AFGWFRCSSCQRSWADAQVQILCH | 2.46 |
| AFGWFRCSSCQRSWAIAQVQILCH | 2.64 |
| AFGWFRCSSCQRSWAGAQVQILCH | 1.75 |
| AFGWFRCSSCQRSWARAQVQILCH | 2.79 |
| AFGWFRCSSCQRSWAEAQVQILCH | 3.11 |
| AFGWFRCSSCQRSWAAAQVQILCH | 2.73 |
| AFGWFRCSSCQRSWAFAQVQILCH | 2.12 |
| AFGWFRCSSCQRSWAKAQVQILCH | 2.9 |
| AFGWFRCSSCQRSWAHAQVQILCH | 3.4 |
| AFGWFRCSSCQRSWATAQVQILCH | 1.95 |
| AFGWFRCSSCQRSWAYAQVQILCH | 1.78 |
